B1: Retinoic acid receptor RXR-alpha, residues 132 to 208; numbered along this chain, P19793 (parent)
chain: KHICAICGDRSSGKHYGVYSCEGCKGFFKRTVRKDLTYTCRDNKDCLIDKRQRNRCQYCRYQKCLAMGMKREAVQEE

± gives the uncertainty stated by the source.

The values that follow come from the Human Domainome abundance scans (Beltran et al. 2025).

This series covers variants of B1. Put plainly: abundance fitness (aPCA) (normalised: wild type 0, dead -1); higher = more abundant; growth selection in yeast, the domain comes from the species named. The note with it: Homo sapiens.
As to KHICAICGDRSSGKHYGVYWCEGCKGFFKRTVRKDLTYTCRDNKDCLIDKRQRNRCQYCRYQKCLAMGMKREAVQEE [S20W], the abundance fitness is 0.045 ± 0.029. The same measure for KHICAICGDRSSGKHYGVYSCEDCKGFFKRTVRKDLTYTCRDNKDCLIDKRQRNRCQYCRYQKCLAMGMKREAVQEE [G23D]: 0.049 ± 0.035; for KHICAICGDRSSGKHYGVYSCEFCKGFFKRTVRKDLTYTCRDNKDCLIDKRQRNRCQYCRYQKCLAMGMKREAVQEE [G23F]: -0.424 ± 0.038; for KHICAICGDRSSGKHYGVYSCEACKGFFKRTVRKDLTYTCRDNKDCLIDKRQRNRCQYCRYQKCLAMGMKREAVQEE [G23A]: -0.082 ± 0.026. With KHICAICGDRSSGKHYGVYSCEQCKGFFKRTVRKDLTYTCRDNKDCLIDKRQRNRCQYCRYQKCLAMGMKREAVQEE [G23Q] the figure was -0.157 ± 0.033; with KHICAICGDRSSGKHYGVYSCERCKGFFKRTVRKDLTYTCRDNKDCLIDKRQRNRCQYCRYQKCLAMGMKREAVQEE [G23R], -0.037 ± 0.023. With KHICAICGDRSSGKHYGVYSCEKCKGFFKRTVRKDLTYTCRDNKDCLIDKRQRNRCQYCRYQKCLAMGMKREAVQEE [G23K] the figure was -0.128 ± 0.033; with KHICAICGDRSSGKHYGVYSCEICKGFFKRTVRKDLTYTCRDNKDCLIDKRQRNRCQYCRYQKCLAMGMKREAVQEE [G23I], -0.407 ± 0.04.

As for KHICAICGDRSSGKHYGVYSCECCKGFFKRTVRKDLTYTCRDNKDCLIDKRQRNRCQYCRYQKCLAMGMKREAVQEE [G23C], the abundance fitness is -0.258 ± 0.034. The same measure for KHICAICGDRSSGKHYGVYSCEVCKGFFKRTVRKDLTYTCRDNKDCLIDKRQRNRCQYCRYQKCLAMGMKREAVQEE [G23V]: -0.144 ± 0.025. With KHICAICGDRSSGKHYGVYSCEPCKGFFKRTVRKDLTYTCRDNKDCLIDKRQRNRCQYCRYQKCLAMGMKREAVQEE [G23P] the figure was -0.126 ± 0.03; with KHICAICGDRSSGKHYGVYSCELCKGFFKRTVRKDLTYTCRDNKDCLIDKRQRNRCQYCRYQKCLAMGMKREAVQEE [G23L], -0.407 ± 0.028; with KHICAICGDRSSGKHYGVYSCEMCKGFFKRTVRKDLTYTCRDNKDCLIDKRQRNRCQYCRYQKCLAMGMKREAVQEE [G23M], -0.305 ± 0.034.

As for KHICAICGDRSSGKHYGVYSCEWCKGFFKRTVRKDLTYTCRDNKDCLIDKRQRNRCQYCRYQKCLAMGMKREAVQEE [G23W], the abundance fitness is -0.015 ± 0.028.

Take KHICAICGDRSSGKHYGVYSCEECKGFFKRTVRKDLTYTCRDNKDCLIDKRQRNRCQYCRYQKCLAMGMKREAVQEE [G23E]: the abundance fitness is -0.039 ± 0.031. As to KHICAICGDRSSGKHYGVYSCEYCKGFFKRTVRKDLTYTCRDNKDCLIDKRQRNRCQYCRYQKCLAMGMKREAVQEE [G23Y], the abundance fitness is -0.312 ± 0.035. The same measure for KHICAICGDRSSGKHYGVYSCETCKGFFKRTVRKDLTYTCRDNKDCLIDKRQRNRCQYCRYQKCLAMGMKREAVQEE [G23T]: -0.256 ± 0.03.

With KHICAICGDRSSGKHYGVYSCESCKGFFKRTVRKDLTYTCRDNKDCLIDKRQRNRCQYCRYQKCLAMGMKREAVQEE [G23S], the abundance fitness is -0.288 ± 0.027. With KHICAICGDRSSGKHYGVYSCEHCKGFFKRTVRKDLTYTCRDNKDCLIDKRQRNRCQYCRYQKCLAMGMKREAVQEE [G23H] the figure was -0.089 ± 0.032; with KHICAICGDRSSGKHYGVYSCENCKGFFKRTVRKDLTYTCRDNKDCLIDKRQRNRCQYCRYQKCLAMGMKREAVQEE [G23N], -0.269 ± 0.039. KHICAICGDRSSGKHYGVYSLEGCKGFFKRTVRKDLTYTCRDNKDCLIDKRQRNRCQYCRYQKCLAMGMKREAVQEE [C21L]: the abundance fitness is -0.986 ± 0.055. As for KHICAICGDRSSGKHYGVYSSEGCKGFFKRTVRKDLTYTCRDNKDCLIDKRQRNRCQYCRYQKCLAMGMKREAVQEE [C21S], the abundance fitness is -0.98 ± 0.057. With KHICAICGDRSSGKHYGVYSDEGCKGFFKRTVRKDLTYTCRDNKDCLIDKRQRNRCQYCRYQKCLAMGMKREAVQEE [C21D] the figure was -0.413 ± 0.039; with KHICAICGDRSSGKHYGVYSNEGCKGFFKRTVRKDLTYTCRDNKDCLIDKRQRNRCQYCRYQKCLAMGMKREAVQEE [C21N], -0.803 ± 0.069; with KHICAICGDRSSGKHYGVYSAEGCKGFFKRTVRKDLTYTCRDNKDCLIDKRQRNRCQYCRYQKCLAMGMKREAVQEE [C21A], -1.07 ± 0.072. With KHICAICGDRSSGKHYGVYSWEGCKGFFKRTVRKDLTYTCRDNKDCLIDKRQRNRCQYCRYQKCLAMGMKREAVQEE [C21W] the figure was -1.03 ± 0.085; with KHICAICGDRSSGKHYGVYSGEGCKGFFKRTVRKDLTYTCRDNKDCLIDKRQRNRCQYCRYQKCLAMGMKREAVQEE [C21G], -0.956 ± 0.047. As to KHICAICGDRSSGKHYGVYSPEGCKGFFKRTVRKDLTYTCRDNKDCLIDKRQRNRCQYCRYQKCLAMGMKREAVQEE [C21P], the abundance fitness was -0.9 ± 0.072.

As to KHICAICGDRSSGKHYGVYSTEGCKGFFKRTVRKDLTYTCRDNKDCLIDKRQRNRCQYCRYQKCLAMGMKREAVQEE [C21T], the abundance fitness was -1.05 ± 0.092. The same measure for KHICAICGDRSSGKHYGVYSQEGCKGFFKRTVRKDLTYTCRDNKDCLIDKRQRNRCQYCRYQKCLAMGMKREAVQEE [C21Q]: -1.02 ± 0.11; for KHICAICGDRSSGKHYGVYSMEGCKGFFKRTVRKDLTYTCRDNKDCLIDKRQRNRCQYCRYQKCLAMGMKREAVQEE [C21M]: -0.827 ± 0.067; for KHICAICGDRSSGKHYGVYSHEGCKGFFKRTVRKDLTYTCRDNKDCLIDKRQRNRCQYCRYQKCLAMGMKREAVQEE [C21H]: -0.933 ± 0.079. In the case of KHICAICGDRSSGKHYGVYSYEGCKGFFKRTVRKDLTYTCRDNKDCLIDKRQRNRCQYCRYQKCLAMGMKREAVQEE [C21Y], the abundance fitness is -0.676 ± 0.066. As for KHICAICGDRSSGKHYGVYSFEGCKGFFKRTVRKDLTYTCRDNKDCLIDKRQRNRCQYCRYQKCLAMGMKREAVQEE [C21F], the abundance fitness was -0.962 ± 0.077. As for KHICAICGDRSSGKHYGVYSIEGCKGFFKRTVRKDLTYTCRDNKDCLIDKRQRNRCQYCRYQKCLAMGMKREAVQEE [C21I], the abundance fitness was -1.12 ± 0.11. For the variant KHICAICGDRSSGKHYGVYSEEGCKGFFKRTVRKDLTYTCRDNKDCLIDKRQRNRCQYCRYQKCLAMGMKREAVQEE [C21E], the abundance fitness was -0.845 ± 0.072.
